The labels stand for the following.
B1: peptide 10b-M (peptide)
peptide: Ac-LT[F2f][R8]EY[Hexa]AQ[Cba][S5]SAA-NH2
modifications: staple 4-11
B2: peptide 10b-M unclosed (peptide)
peptide: Ac-LT[F2f][R8]EY[Hexa]AQ[Cba][S5]SAA-NH2
modifications: bridges not given here
B3: peptide 10b-S4 (peptide)
peptide: Ac-LT[F2f]KEY[Hexa]AQ[Cba]KSAA-NH2
modifications: linker 4-11 via perfluorosulfone; reading uncertain; also: printed as LT(F2f)KEY(Hexa)AQ(Cba)(K)SAA
B4: 27b-S4 (peptide)
peptide: Ac-LT[F2f]KEY[Napa]AQ[Cba]KSAA-NH2
modifications: linker 4-11 via perfluorosulfone; reading uncertain
B5: peptide 11b-M (peptide)
peptide: Ac-LT[F2f][R8]EFWAQ[Cba][S5]SAA-NH2
modifications: staple 4-11
B6: peptide ATSP-7040 (peptide)
peptide: LTF[R8]EYWAE[Cba][S5]SAA-NH2
modifications: staple 4-11; N-terminus assumed
SMILES: CC(C)C[C@H](N)C(=O)N[C@H](C(=O)N[C@@H](Cc1ccccc1)C(=O)N[C@]1(C)CCCCCCC=CCCC[C@@](C)(C(=O)N[C@@H](CO)C(=O)N[C@@H](C)C(=O)N[C@@H](C)C(N)=O)NC(=O)[C@H](CC2CCC2)NC(=O)[C@H](CCC(=O)O)NC(=O)[C@H](C)NC(=O)[C@H](Cc2c[nH]c3ccccc23)NC(=O)[C@H](Cc2ccc(O)cc2)NC(=O)[C@H](CCC(=O)O)NC1=O)[C@@H](C)O
B7: peptide 11b-S1 (peptide)
peptide: Ac-LT[F2f][Dap]EYWAQ[Cba][Dap]SAA-NH2
modifications: linker 4-11 via perfluoroaryl sulfone
notes: Macrocyclic
B8: peptide 10b-S1 (peptide)
peptide: Ac-LT[F2f][Dap]EY[Hexa]AQ[Cba][Dap]SAA-NH2
modifications: bridge 4-11 via perfluorosulfone; reading uncertain
B9: peptide 27b-M (peptide)
peptide: Ac-LT[F2f][R8]EY[Napa]AE[Cba]KSAA-NH2
modifications: staple (positions not given here); not fully specified (residue 11, bridges); reading uncertain
B10: peptide 11b-S4 (peptide)
peptide: Ac-LT[F2f]KEYWAE[Cba]KSAA-NH2
modifications: linker 4-11 via perfluorosulfone; reading uncertain; also: printed as LT(F2f)KEYWAE(Cba)KSAA
B11: peptide 3a (peptide)
peptide: Biotin-LTFPHYWAELTSK-NH2
SMILES: CC(C)C[C@H](NC(=O)CCCC[C@@H]1SC[C@@H]2NC(=O)N[C@@H]21)C(=O)N[C@H](C(=O)N[C@@H](Cc1ccccc1)C(=O)N1CCC[C@H]1C(=O)N[C@@H](Cc1c[nH]cn1)C(=O)N[C@@H](Cc1ccc(O)cc1)C(=O)N[C@@H](Cc1c[nH]c2ccccc12)C(=O)N[C@@H](C)C(=O)N[C@@H](CCC(=O)O)C(=O)N[C@@H](CC(C)C)C(=O)N[C@H](C(=O)N[C@@H](CO)C(=O)N[C@@H](CCCCN)C(N)=O)[C@@H](C)O)[C@@H](C)O
B12: peptide 7b (peptide)
peptide: Ac-LTFEHYWAQYTSK-NH2
B13: peptide 9b (peptide)
peptide: Ac-LTYEHYWAQLTSK-NH2
notes: Text says 3Phe to Leu or Tyr (8a and 9a)
B14: peptide 8b (peptide)
peptide: Ac-LTLEHYWAQLTSK-NH2
notes: as for B13
B15: peptide 10a-M (peptide)
peptide: Biotin-LT[F2f][R8]EY[Hexa]AQ[Cba][S5]SAA-NH2
modifications: staple 4-11
notes: Macrocyclic
B16: peptide 11a (peptide)
peptide: Biotin-LT[F2f]EHYWAQ[Cba]TSK-NH2
B17: peptide 19a (peptide)
peptide: Biotin-LT[F2f]EHYWAQ[Hexa]TSK-NH2
B18: peptide 10a (peptide)
peptide: Biotin-LT[F2f]EHY[Hexa]AQ[Cba]TSK-NH2
B19: peptide 25a (peptide)
peptide: Biotin-LT[F2f]EHYWAQ[F2f]TSK-NH2
B20: peptide 22a (peptide)
peptide: Biotin-LT[F3f]EHY[Anta]AQ[Cba]TSK-NH2
modifications: reading uncertain; also: printed as LT(F3f)EHY(Anta)AQ(Cba)TSK

*1 amine or outer side, *2 acyl side, *3 side chain or, on linkers, in order; H or OH if unused. Bridges are numbered along the chain shown (N, C = ends). Where no end group is shown, it is not given here. [ ]: non-standard residue; d: D form. The star is where a group is joined. Hexa = hexylalanine = (2S)-2-aminononanoic acid, CCCCCCC[C@H](N[*:1])C(=O)[*:2]; Biotin = O=C1N[C@H]2[C@H](CS[C@H]2CCCCC(=O)*)N1; perfluorosulfone = not defined here; R8 = C=CCCCCCC[C@@](C)(N)C(=O)O; F2f = difluoro-L-phenylalanine; Cba = N[C@@H](CC1CCC1)C(=O)O; S5 = C=CCCC[C@](C)(N)C(=O)O; Anta = not defined here; Napa = not defined here; Dap = NC[C@H](N)C(=O)O; F3f = not defined here

Usually Kd stands for the constant that tells how readily two partners part at equilibrium.

One test concerns the target MDM2 in MDM2 overexpressing SJSA-1 cells (UniProt Q00987 1-491, limits assumed). Description: cell-based or functional assay.
For the molecule B1, the “IC50, viability of SJSA-1 cells” value came out at 2400 nM.

Consider B2, for which the “IC50, viability of SJSA-1 cells” value came to 17000 nM.

As to B3, the “IC50, viability of SJSA-1 cells” value was above 20000 nM.

With B4, the “IC50, viability of SJSA-1 cells” value is above 20000 nM. Same read-out and setting: next, B5: 3200 nM; B6: 3000 nM; B7: 7800 nM. Same read-out and setting: the same measure for B8: above 20000 nM; for B9: 2700 nM; for B10: above 20000 nM.

For the next test, the target named is T1, SUMO-^25-109MDM2 (UniProt Q00987 25-109).
T1 construct: range 25-109; Expressed in Rosetta (DE3) pLysS cells, MW=23 297 Da, used with the SUMO tag on; not shown: SUMO fusion tag (protein purified on Ni-NTA)
Description: BLI, biotinylated peptide immobilized. For orientation: In BLI a coated tip is dipped into the sample, and binding shifts an interference pattern.
For B11, the Kd amounted to 80 nM.

The target of the next test is T1, SUMO-^25-109MDM2. Description: BLI in-solution competition assay, free MDM2 read on immobilized 63a.
Turning to B12, the Kd is 490 nM. Same read-out and setting: the same measure for B13: 8700 nM. Same read-out and setting: next, B14: 2500 nM.

The next test deals with T1, SUMO-^25-109MDM2. Description: BLI, acetylated peptide (in solution competition assay).
B14 showed a Kd of 2700 nM.

A further test addresses T1, SUMO-^25-109MDM2. Description: BLI, immobilized assay for biotinylated peptide.
B15 had a Kd of 3 nM.

The next test concerns the target T1, SUMO-^25-109MDM2. Nature of the test: BLI, peptide on streptavidin sensors, global fit.
Molecule B16 had a Kd of 2 nM. Turning to B17, the dissociation constant Kd is 8 nM. The same measure, in the same setting: next, B15: 5 nM; B18: 0.5 nM. The same measure, in the same setting: next, B19: 20 nM. On the same count and under the same terms, the same measure for B20: 10 nM.

For a further test, the target named is T1, SUMO-^25-109MDM2. Nature of the test: BLI, estimated in solution (competition assay) for acetylated construct.
Regarding B7, the Kd is 1 nM.

The record behind these values is patent publication US20190300576A1 (MIT, published 2019).
